T1: CD123-Fc重组蛋白 (human, UniProt P26951 19-305)
T1 construct: also called CD123-Fc蛋白; 人CD123-Fc; not shown: Fc part
T1 sequence: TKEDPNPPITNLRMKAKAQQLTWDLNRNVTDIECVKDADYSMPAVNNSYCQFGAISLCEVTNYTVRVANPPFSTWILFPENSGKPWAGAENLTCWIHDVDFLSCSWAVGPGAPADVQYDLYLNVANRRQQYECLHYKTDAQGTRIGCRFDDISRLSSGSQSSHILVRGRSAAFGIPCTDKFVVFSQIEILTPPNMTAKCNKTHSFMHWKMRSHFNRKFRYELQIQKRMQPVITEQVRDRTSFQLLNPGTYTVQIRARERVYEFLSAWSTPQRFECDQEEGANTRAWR


Target: T1, CD123-Fc重组蛋白
Assay: FACS staining of CAR T cells with CD123-Fc recombinant protein

Binder	binding result
抗CD123 scFv-C6 (in a CAR on T cells) (scFv, Human scFv from phage display; not shown: rest of the CAR, hinge domain to CD3-zeta domain) scFv: SYELTQPPSVSVSPGQTARIPCSGADLGDQYVSWYQHQPGQSPLLVIYEDDKRPSGIPERFSGSNSGNTATLTISGTQAMDEADYYCQAWDGNAAIFGGGTKLTVLGGGGSGGGGSGGGGSQVQLVQSGGGSVQPGGSLRLSCAASGFTFTRYSMNWVRQAPGKGLEWVSYISSSSSTIYYADSVKGRFTISRDNAKNSLYLQMNSLRDEDTAVYYCARDGYGGNSDYYGMDVWGQGTTVTVSS	binds
抗CD123 scFv-C17 (in a CAR on T cells) (scFv, Human scFv from phage display; not shown: rest of the CAR, hinge domain to CD3-zeta domain) scFv: QSALTQPASVSGSLGQSITISCTGTSSDVGTYDYVSWYQQHPGKAPKLMIYDVTYRPSGVSHRFSGSKSGNTASLTISGLQADDEADYYCQQYNNWPPRYTFGQGTKVEIKGGGGSGGGGSGGGGSQVQLVQSGAEVEKPGASVKLSCTASGYNFNSYYMHWVRLTPGQGLEWMGLINPTNGRTTYAQKFQGRVTMTGDTSTRTVYLALSSLRSEDSALYYCARGSPPHIFDPDFDYWGQGTLVTVSS	binds
抗CD123 scFv-C18 (in a CAR on T cells) (scFv, Human scFv from phage display; not shown: rest of the CAR, hinge domain to CD3-zeta domain) scFv: QSALTQPASVSGSPGQSITISCTGTSSDVGGYNYVSWYQQHPGKAPKLMIYDVSNRPSGVSNRFSGSKSGNTASLTISGLQAEDEADYYCSSYTSSSTLFVFGTGTELTVLGGGGSGGGGSGGGGSQVQLQESGPGLVKPSQTLSLTCTVSGGSISSGDYYWSWIRQSPGKGLEWIGYIHSTGTTYYNPSLKSRLTISLDTSKNQFSLKLNSVTAADTAVYYCARGGVGTIFNYWGQGTLVTVSS	binds
抗CD123 scFv-C16 (in a CAR on T cells) (scFv, Human scFv from phage display; not shown: rest of the CAR, hinge domain to CD3-zeta domain) scFv: QSVVTQPPSASGTPGQRVTISCSGSSSNIEGNTVSWYQQFPGAAPKLLIYSNSYRASGVPDRFSGSKSGTSASLAISELQSEDEADYYCSAWDDSLNGPVFGGGTELTVLGGGGSGGGGSGGGGSQVQLQESGGGLVQPGGSLRLSCAASGFTFSSYSMNWVRQAPGKGLEWVSYISSSSSTIYYADSVKGRFTISRDNAKNSLYLQMNSLRAEDTAVYYCARDIYGDWDYYYYGMDVWGQGTTVTVSS	binds
抗CD123 scFv-C11 (in a CAR on T cells) (scFv, Human scFv from phage display; also called 抗-CD123-C11; not shown: rest of the CAR, hinge domain to CD3-zeta domain) scFv: QSVVTQPPSASGTPGQRVTISCSGSSSNIGSNYVYWYQQLPGTAPKLLIYRNNQRPSGVPDRFSGSKSGTSASLAISGLRSEDEADYYCAAWDDSLSGYVFGTGTKLTVLGGGGSGGGGSGGGGSEVQLVESGGGLVQPGRSLRLSCTASGFTFGDYAMSWVRQAPGKGLEWVGFIRSKAYGGTTEYAASVKGRFTISRDDSKSIAYLQMNSLKTEDTAVYYCTRDIGYYGSGSYSPFDYWGQGTLVTVSS	binds
抗CD123 scFv-C29 (in a CAR on T cells) (scFv, Human scFv from phage display; not shown: rest of the CAR, hinge domain to CD3-zeta domain) scFv: QPVLTQPPSASGTPGQRVTISCSGSSSNIGSNYVYWYQQLPGTAPKLLIYRNNQRPSGVPDRFSGSKSGTSASLAISGLRSEDEADYYCAAWDDSLSGYVFGTGTKVTVLGGGGSGGGGSGGGGSEVHLVESGGGLVQPGRSLRLSCTASGFTFGDYAMSWVRQAPGKGLEWVGFIRSKAYGGTTEYAASVKGRFTISRDDSKSIAYLQMNSLKTEDTAVYYCTRDIGYYGSGSYSPFDYWGQGTLVTVSS	binds
抗CD123 scFv-C9 (in a CAR on T cells) (scFv, Human scFv from phage display; not shown: rest of the CAR, hinge domain to CD3-zeta domain) scFv: QSVLTQPPSASGTPGQRVTISCSGSNSNIENNYVYWYQHLPGTAPKRLIYQNNQRPSGVPDRFSGSKSGTSASLAISGLRSEDEADYYCSAWDDSLSAWVFGGGTELTVLGGGGSGGGGSGGGGSEVHLVESGGGLVQPGRSLRLSCTASGFTFGDYAMNWVRQAPGKGLEWVGFIRSKASGGTTDYAASVKGRFTISRDDSKSIAYLQMNSLKTEDTAVYYCTRALRGYSYGLFDYWGQGTLVTVSS	binds
抗CD123 scFv-C30 (in a CAR on T cells) (scFv, Human scFv from phage display; not shown: rest of the CAR, hinge domain to CD3-zeta domain) scFv: AIRLTQSPSSLSASVGDRVTITCQASQNINNYLNWYQQKSGKAPKLLIYDASNLEAGVPSRFSGSASGTDFTFTISSLQPEDIATYYCQQNDNLPLTFGQGTRLEIKGGGGSGGGGSGGGGSEVQLVESGGGVVRPGGSLRLSCAASGFTFGDYGMSWVRQAPGKGLEWVSGINWNGGSTGYADSVKGRFTISRDNAKNSLYLQMNSLRAEDTALYYCARDRAPDYGDYLQVGTTDYWGQGTLVTVSS	binds
抗CD123 scFv-C26 (in a CAR on T cells) (scFv, Human scFv from phage display; not shown: rest of the CAR, hinge domain to CD3-zeta domain) scFv: QSVLTQPPSASGTPGQRVTISCSGSRSNIGSNTVSWYQQFPGTAPKLLIYLNNQRPSGVPDRFSGSKSGTSASLAISGLQSEDEAEYYCATWDDDLNGVFGGGTKLTVLGGGGSGGGGSGGGGSEVQLVESGGGLVQPGGSLRLSCAASGFTLSNFEMNWVRQAPGRGLEWVSYISATTSATSYADSVKGRFTISRDNAKNSLYLQMNSLRAEDTAVYYCARVRDGYNFGYYYYYMDVWGKGTTVTVSS	binds
抗CD123 scFv-C14 (in a CAR on T cells) (scFv, Human scFv from phage display; not shown: rest of the CAR, hinge domain to CD3-zeta domain) scFv: DIRMTQSPSSLSASVGDRVTITCQASQDITNYLNWYHQKPGKAPKLLIYDASNLETGVPSRFSGGGSGTDFTFTISSLQSEDIGTYYCQQYDDLPLTFGGGTKVEIKGGGGSGGGGSGGGGSQVQLQESGPGLVKPSETLSLTCTVSGGSISSSSHYWGWIRQPPGKGLEWIGSIYYSGSTYYNPSLKSRVTISVDTSKNQFSLKLSSVTAADTAVYYCARRVWVWPTYGMDVWGQGTTVTVSS	binds
抗CD123 scFv-C15 (in a CAR on T cells) (scFv, Human scFv from phage display; not shown: rest of the CAR, hinge domain to CD3-zeta domain) scFv: DIQLTQSPSTLSASVGDRVTISCRASQSISSWLAWYQHKPGKAPKLLIYKTSALEDGVPSRFSGSGSGTEFTLTISSLQPDDFATYFCLHYGSYTFGQGTKVDIKGGGGSGGGGSGGGGSEVQLVESGGGLVNPGGSLRLSCEASGFTFSDYYISWIRQAPGKGLEWISYISGSSTYTDFADSVKGRFTISRDNAKNTVFLQMNSLRAEDTAVYYCARDRRGRFDPWGQGTLVTVSS	binds
抗CD123 scFv-C4 (in a CAR on T cells) (scFv, Human scFv from phage display; not shown: rest of the CAR, hinge domain to CD3-zeta domain) scFv: QSALTQPPSASGTPGQRVTISCSGSSSNIGSNYVNWYQQLPGTAPKLLIYRNNQRPSGVPDRFSGSKSGTSASLAISGLRSEDEADYYCAAWDDSLSGHGVFGTGTELTVLGGGGSGGGGSGGGGSQVQLVQSGPEVKKPGASVKVSCKASGYDFIRYYMNWVRQAPGQGPEWMGAIDPSDGDTTYGQKFQGRVTLTRDTFTSTVYMELSSLRSEDTAVYYCARDWELTNSYGLDVWGQGTTVTVSS	binds
抗CD123 scFv-C5 (in a CAR on T cells) (scFv, Human scFv from phage display; also called 抗-CD123-C5; not shown: rest of the CAR, hinge domain to CD3-zeta domain) scFv: NFMLTQPHSVSESPGKTVTLSCTRSSGSIAGSYVQWYQQRPGSSPTTVIFQDNQRPSGVPDRFSGSIDKSSNSASLTISGLKTEDEADYYCQSYDSNNQVFGGGTKLTVLGGGGSGGGGSGGGGSEVHLVESGGGVVRPGGSLRLSCAASGFTFGDYGMSWVRQAPGKGLEWVSGINWNGGRTGYADSVKGRFTISRDNAKNSLYLQMNSLRAEDTALYYCARARGSGSYFGYMDVWGKGTTVTVSS	binds
抗CD123 scFv-C2 (in a CAR on T cells) (scFv, Human scFv from phage display; not shown: rest of the CAR, hinge domain to CD3-zeta domain) scFv: QSVVTQPPSVSAAPGQKVTISCSGSSSNIGNNYVSWYQQFPGTAPKLLIYDNNKRPSGIPDRFSGSKSGTSGTLGITGLQTGDEADYYCVTWDTSLSAGVFGGGTKLTVLGGGGSGGGGSGGGGSQITLKESGGGLVKPGGSLRLSCAASGFTFSNAWMSWVRQAPGKGLEWVGRIKSKTDGGTTDYAAPVKGRFTISRDDSKNTLYLQMNSLKTEDTAVYYCTTDPHGYYYGMDVWGQGTTVTVSS	binds
